Values joined by “and” are separate entries in the source; they are usually repeats but may differ in a detail not shown here. Equal entries are not always repeated.
T1: IgFold domain of human lamin A/C from amino acid 411 to amino acid 566 (human, UniProt P02545 411-566)
T1 construct: human lamin A/C, residues 411-566 including the IgFold domain; Cloned into a pGEX vector; also called LamIgF; lamin A/C Igfold domain; source: E. coli BL21 DE3 Star, purified (glutathione beads, thrombin cleavage, gel filtration); 15N labelled for NMR
T1 sequence (looked up): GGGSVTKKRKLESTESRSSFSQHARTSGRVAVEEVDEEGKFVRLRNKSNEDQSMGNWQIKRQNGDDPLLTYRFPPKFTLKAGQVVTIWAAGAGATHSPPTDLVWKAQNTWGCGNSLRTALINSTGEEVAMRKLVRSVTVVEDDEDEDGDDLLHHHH

T2: Di-phosphorylated BAF (BAF phosphorylated by VRK1 on Thr3 and Ser4) (human, UniProt O75531 1-89, glycine as residue 1 instead of the native methionine | C67 mutated into …, phosphothreonine at 3, phosphoserine at 4)
T2 sequence: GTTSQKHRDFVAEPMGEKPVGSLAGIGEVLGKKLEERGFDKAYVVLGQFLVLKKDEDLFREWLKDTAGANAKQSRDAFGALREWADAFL

T3: Barrier-to-autointegration factor (BAF construct with the four cysteines replaced by alanines) (human, UniProt O75531 1-89, glycine as residue 1 instead of the native methionine | C67 mutated into …)
T3 sequence: T2 sequence

B1: Barrier-to-autointegration factor (BAF construct with the four cysteines replaced by alanines) (natural protein, human, UniProt O75531 1-89, looked up)
chain: T2 sequence
notes: human barrier-to-autointegration factor (BANF1), an 89-aa protein; residue 1 is a glycine left by the TEV site instead of the native methionine; all four cysteines mutated into alanine; also called BAF WT; non-phosphorylated BAF; not shown: His tag, N-terminal, cleaved
B2: Di-phosphorylated BAF (BAF phosphorylated by VRK1 on Thr3 and Ser4) (natural protein, human, UniProt O75531 1-89, looked up)
chain: T2 sequence
modifications: phosphothreonine at 3, phosphoserine at 4
notes: human barrier-to-autointegration factor (BANF1), an 89-aa protein; residue 1 is a glycine left by the TEV site instead of the native methionine; all four cysteines mutated into alanine; phosphorylated on Thr3 and Ser4; Same construct as m1, then phosphorylated; also called pBAF; not shown: His tag, N-terminal, cleaved
B3: LEM domain of human emerin from amino acid 1 to amino acid 46 (domain or fragment, UniProt P50402 1-46, looked up)
chain: MDNYADLSDTELTTLLRRYNIPHGPVVGSTRRLYEKKIFEYETQRR
notes: human emerin, residues 1-46 (LEM domain); also called emerin LEM domain; LEM fragment

Tests used:
[1] = test system: BAF A12T (human); assay: fluorescence, dye-labelled coated dsDNA; details: mean of 4; ITC: 50 mM Tris-HCl pH 8.0, 150 mM NaCl, 15 C, 20 uM BAF in cell, DNA 200 uM (7/21 nt) or 100 uM (48 nt) in syringe; fluorescence assay buffer not given in the …
[2] = test system: pBAF (pThr3, pSer4) (human); assay: fluorescence, dye-labelled coated dsDNA; details: mean of 2; ITC: 50 mM Tris-HCl pH 8.0, 150 mM NaCl, 15 C, 20 uM BAF in cell, DNA 200 uM (7/21 nt) or 100 uM (48 nt) in syringe; fluorescence assay buffer not given in the …
[3] = test system: BAF WT (Cys-less construct) (human); assay: fluorescence, dye-labelled coated dsDNA; details: mean of 5; ITC: 50 mM Tris-HCl pH 8.0, 150 mM NaCl, 15 C, 20 uM BAF in cell, DNA 200 uM (7/21 nt) or 100 uM (48 nt) in syringe; fluorescence assay buffer not given in the …
[4] = test system: BAF S4E (human); assay: fluorescence, dye-labelled coated dsDNA; details: mean of 2; ITC: 50 mM Tris-HCl pH 8.0, 150 mM NaCl, 15 C, 20 uM BAF in cell, DNA 200 uM (7/21 nt) or 100 uM (48 nt) in syringe; fluorescence assay buffer not given in the …
[5] = test system: BAF A12T (human); assay: ITC; details: ITC: 50 mM Tris-HCl pH 8.0, 150 mM NaCl, 15 C, 20 uM BAF in cell, DNA 200 uM (7/21 nt) or 100 uM (48 nt) in syringe; fluorescence assay buffer not given in the …
[6] = test system: BAF WT (Cys-less construct) (human); assay: ITC; details: ITC: 50 mM Tris-HCl pH 8.0, 150 mM NaCl, 15 C, 20 uM BAF in cell, DNA 200 uM (7/21 nt) or 100 uM (48 nt) in syringe; fluorescence assay buffer not given in the …
[7] = molecular target: T1, IgFold domain of human lamin A/C from …; assay: ITC; VP-ITC, 15°C; BAF or pBAF dimers at 20 μM in the cell titrated with LamIgF at 100 μM or LEM at 150 μM in the syringe; 50 mM HEPES pH 7.4, 150 mM NaCl; in duplicate; details: both partners purified
[8] = molecular target: B2; assay: as above; details: both partners purified
[9] = molecular target: B1; assay: as above; details: both partners purified
[10] = molecular target: T2, Di-phosphorylated BAF (BAF …); assay: ITC; phosphorylated BAF (pThr3, pSer4)
[11] = molecular target: T3, Barrier-to-autointegration factor (BAF …); assay: ITC

## 48 nt dsDNA, coated
[1]
  Kd: 2.5 nM
[2]
  Kd: 10700 nM
[3]
  Kd: 2.54 nM
[4]
  Kd: 15000 nM

## 21 nt dsDNA
[5]
  Kd: 300 nM and 210 nM
[6]
  Kd: 170 nM and 110 nM

## 7 nt dsDNA
[5]
  Kd: 1700 nM and 920 nM
[6]
  Kd: 1000 nM and 2100 nM

## 48 nt dsDNA (ITC)
[5]
  Kd: 28.8 nM
[6]
  Kd: 41.1 nM

## B1
[7]
  Kd: 4500 ± 500 nM

## B2
[7]
  Kd: 4900 ± 800 nM

## B3
[8]
  Kd: ~1000 nM
[9]
  Kd: ~1000 nM
[10]
  Kd: 700 nM
[11]
  Kd: 1100 nM
